Like-named read-outs stand apart in the source and are kept apart here. One block for each binder: values may come before it.
Key:
[1] = biological target: T1, huIL-18Rβ-HisAvi (human, UniProt O95256 20-356, biotinylated in the Octet blocking assay); assay: SPR T200, pH 7.4; sample stored at pH 6, 4 w 40C
T1 construct: Soluble analyte in all SPR runs; captured on streptavidin sensors in the Octet assay; also called human IL-18Rβ; human IL-18Rβ-Avi-His
T1 sequence: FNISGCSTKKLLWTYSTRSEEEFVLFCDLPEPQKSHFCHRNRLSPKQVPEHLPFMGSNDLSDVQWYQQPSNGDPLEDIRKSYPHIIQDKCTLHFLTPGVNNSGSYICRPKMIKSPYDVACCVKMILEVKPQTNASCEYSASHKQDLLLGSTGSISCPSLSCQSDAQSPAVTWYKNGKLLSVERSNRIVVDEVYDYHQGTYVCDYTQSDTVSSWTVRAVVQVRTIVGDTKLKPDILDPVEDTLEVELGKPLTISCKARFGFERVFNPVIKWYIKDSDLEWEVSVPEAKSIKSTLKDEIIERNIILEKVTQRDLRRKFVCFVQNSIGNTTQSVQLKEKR

[2] = biological target: T1, huIL-18Rβ-HisAvi; assay: SPR T200, mAb on anti-hFc, 37C, pH 6
[3] = biological target: T2, cyIL-18Rβ-HisAvi (cynomolgus monkey); assay: SPR T200, mAb on anti-hFc, 37C, pH 6
T2 construct: Soluble analyte in SPR; also called cyno IL-18Rβ; cynomolgus monkey IL-18Rβ
T2 chain: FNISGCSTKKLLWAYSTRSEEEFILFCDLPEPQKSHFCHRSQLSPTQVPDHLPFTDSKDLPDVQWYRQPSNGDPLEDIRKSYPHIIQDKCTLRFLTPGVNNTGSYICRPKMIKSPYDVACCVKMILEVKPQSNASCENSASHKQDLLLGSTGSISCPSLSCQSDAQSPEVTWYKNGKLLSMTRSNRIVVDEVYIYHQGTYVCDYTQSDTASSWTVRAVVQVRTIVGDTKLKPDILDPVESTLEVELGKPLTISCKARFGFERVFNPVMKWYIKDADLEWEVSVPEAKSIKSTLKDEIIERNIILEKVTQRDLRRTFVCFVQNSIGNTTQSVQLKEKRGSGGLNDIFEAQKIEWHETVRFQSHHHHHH

[4] = biological target: the molecule itself; assay: clone self-interaction BLI, antibody on AHQ sensor against 1 µM of the same antibody
[5] = biological target: T3, human IL-18Rβ on cells (human, UniProt O95256 20-599); assay: cell-based or functional assay
T3 sequence: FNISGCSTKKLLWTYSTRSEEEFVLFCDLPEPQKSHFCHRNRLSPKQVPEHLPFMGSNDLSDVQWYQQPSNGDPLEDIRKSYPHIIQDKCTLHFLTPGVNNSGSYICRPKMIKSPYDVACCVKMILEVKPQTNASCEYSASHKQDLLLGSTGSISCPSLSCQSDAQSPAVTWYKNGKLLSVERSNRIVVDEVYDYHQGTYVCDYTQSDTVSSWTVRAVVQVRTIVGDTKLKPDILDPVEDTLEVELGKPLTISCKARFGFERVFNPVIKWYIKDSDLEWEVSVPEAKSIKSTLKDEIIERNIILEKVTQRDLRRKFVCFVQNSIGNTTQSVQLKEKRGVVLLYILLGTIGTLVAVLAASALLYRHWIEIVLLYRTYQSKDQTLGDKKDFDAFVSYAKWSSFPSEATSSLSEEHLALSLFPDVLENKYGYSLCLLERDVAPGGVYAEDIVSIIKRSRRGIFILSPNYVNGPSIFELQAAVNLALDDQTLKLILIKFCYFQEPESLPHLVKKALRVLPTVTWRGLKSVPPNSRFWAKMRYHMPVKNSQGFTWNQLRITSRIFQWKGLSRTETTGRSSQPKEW

[6] = biological target: T1, huIL-18Rβ-HisAvi; assay: SPR T200, mAb on anti-hFc, 37C, pH 7.4
[7] = biological target: T2, cyIL-18Rβ-HisAvi; assay: SPR T200, mAb on anti-hFc, 37C, pH 7.4
[8] = biological target: T1, huIL-18Rβ-HisAvi; assay: SPR T200, mAb on anti-hFc, 37C, pH 7.4; remark: listed apart in the source
[9] = biological target: T3, human IL-18Rβ on cells; assay: cell-based or functional assay; remark: listed apart in the source
[10] = biological target: T1, huIL-18Rβ-HisAvi; assay: SPR T200, pH 7; sample T0
[11] = biological target: T3, human IL-18Rβ on cells; assay: cell-based or functional assay; remark: listed apart in the source

Kd [1]: 5.6 nM | koff [1]: 0.0013 s⁻¹ | kon [1]: 230000 M⁻¹ s⁻¹ | Kd [2]: 0.65 nM | koff [2]: 0.00031 s⁻¹ | kon [2]: 480000 M⁻¹ s⁻¹ | Kd [3]: 11 nM | koff [3]: 0.002 s⁻¹ | kon [3]: 180000 M⁻¹ s⁻¹ | IC50, LPS+IL-12 dependent IFNg production, human whole blood [5]: 1.34 nM | Kd [6]: 1.8 nM | koff [6]: 0.00043 s⁻¹ | kon [6]: 240000 M⁻¹ s⁻¹ | Kd [7]: 19 nM | koff [7]: 0.0029 s⁻¹ | kon [7]: 150000 M⁻¹ s⁻¹ | Kd [8]: 2.3 nM | koff [8]: 0.0005 s⁻¹ | kon [8]: 220000 M⁻¹ s⁻¹ | IC50, LPS+IL-12 dependent IFNg production, human whole blood [9]: 0.3 nM | y-max, LPS+IL-12 dependent IFNg production, human whole blood [9]: 98%
B1: P21 (antibody, human IgG1, kappa, V domains shown)
VH: QVQLQQSGPGLVKPSETLSLTCTVSGGSISNYYWTWIRQPPGKGLEWIGYISDSGSTNYNPSLKSRVTISVDTSKNQFSLKLSSVTAADTAVYYCARETIVVRGFYFYVMDVWGQGTTVTVSS
VL: AIQLTQSPSSLSASVGDRVTITCRASQGISSALAWYQQRPGKAPKLLIYDASNWESGVPSRFSGSGSGTDFTLTISSLQPEDFATYYCQQFNSYPWTFGQGTKVEIKR
notes: Human IgG
Average CSI-BLI ΔResponse [4]: -0.03 nm

apparent Kd (pooled screen) [1]: 1.3 nM | apparent koff (pooled screen) [1]: 0.00039 s⁻¹ | apparent kon (pooled screen) [1]: 300000 M⁻¹ s⁻¹ | apparent Kd (pooled screen) [2]: 0.43 nM | apparent koff (pooled screen) [2]: 0.00016 s⁻¹ | apparent kon (pooled screen) [2]: 380000 M⁻¹ s⁻¹ | Kd [3]: 1.6 nM | koff [3]: 0.00028 s⁻¹ | kon [3]: 180000 M⁻¹ s⁻¹ | IC50, LPS+IL-12 dependent IFNg production, human whole blood [5]: 1.66 nM | apparent Kd (pooled screen) [6]: 0.51 nM | apparent koff (pooled screen) [6]: 0.00017 s⁻¹ | apparent kon (pooled screen) [6]: 330000 M⁻¹ s⁻¹ | Kd [7]: 1.4 nM | koff [7]: 0.00024 s⁻¹ | kon [7]: 180000 M⁻¹ s⁻¹ | apparent Kd (pooled screen) [8]: 1.8 nM | apparent koff (pooled screen) [8]: 0.00032 s⁻¹ | apparent kon (pooled screen) [8]: 180000 M⁻¹ s⁻¹ | IC50, LPS+IL-12 dependent IFNg production, human whole blood [9]: 0.7 nM | y-max, LPS+IL-12 dependent IFNg production, human whole blood [9]: 98%
B2: P20 (antibody, human IgG1, kappa)
heavy: QVQLQQSGPGLVKPSETLSLTCTVSGGSINNYYWSWIRQPPGKGLEWIGYIFYSGTTNYNPSLKSRVTISVDTSKNQFSLKLSSVTAADTAVYYCARDVGIAARNSYYYVMDVWGQGTTVTVSSASTKGPSVFPLAPSSKSTSGGTAALGCLVKDYFPEPVTVSWNSGALTSGVHTFPAVLQSSGLYSLSSVVTVPSSSLGTQTYICNVNHKPSNTKVDKRVEPKSCDKTHTCPPCPAPEAEGAPSVFLFPPKPKDTLMISRTPEVTCVVVDVSHEDPEVKFNWYVDGVEVHNAKTKPREEQYNSTYRVVSVLTVLHQDWLNGKEYKCKVSNKALPAPIEKTISKAKGQPREPQVYTLPPSREEMTKNQVSLTCLVKGFYPSDIAVEWESNGQPENNYKTTPPVLDSDGSFFLYSKLTVDKSRWQQGNVFSCSVMHEALHNHYTQKSLSLSPG
light: AIQLTQSPSSLSASVGDRVTITCRASQGISSALAWYQQKPGKAPKFLIYDASSLESGVPSRFSGSGSGTDFTLTISSLQPEDFATYYCQQFNSYPITFGQGTRLEIKRTVAAPSVFIFPPSDEQLKSGTASVVCLLNNFYPREAKVQWKVDNALQSGNSQESVTEQDSKDSTYSLSSTLTLSKADYEKHKVYACEVTHQGLSSPVTKSFNRGEC
notes: Human IgG
Average CSI-BLI ΔResponse [4]: 0.02 nm

Kd [10]: 0.27 nM | koff [10]: 7.2e-05 s⁻¹ | kon [10]: 270000 M⁻¹ s⁻¹ | IC50, IFNg, human whole blood IL-18+IL-12, Average [11]: 2.28 nM | IC50, IFNg, human whole blood IL-18+IL-12, donor C121 [11]: 3.6 nM | IC50, IFNg, human whole blood IL-18+IL-12, donor C121 (second row) [11]: 1.3 nM | IC50, IFNg, human whole blood IL-18+IL-12, donor C175 [11]: 0.5 nM | IC50, IFNg, human whole blood IL-18+IL-12, donor C237 [11]: 2.74 nM | IC50, IFNg, human whole blood IL-18+IL-12, donor C238 [11]: 1.35 nM | IC50, IFNg, human whole blood IL-18+IL-12, donor C249 [11]: 4.29 nM | IC50, IFNg, human whole blood IL-18+IL-12, donor C252 [11]: 3.23 nM | IC50, IFNg, human whole blood IL-18+IL-12, donor C253 [11]: 1.24 nM
B3: P20-V1 (antibody, human IgG1, kappa, V domains shown)
VH: QVQLQESGPGLVKPSETLSLTCTVSGGSINNYYWSWIRQPPGKGLEWIGYIFYSGTTNYNPSLKSRVTISVDTSKNQFSLKLSSVTAADTAVYYCARDVGIAARNSYYYVMDVWGQGTTVTVSS
VL: AIQLTQSPSSLSASVGDRVTITCRASQGISSALAWYQQKPGKAPKFLIYEASSLESGVPSRFSGSGSGTDFTLTISSLQPEDFATYYCQQFNSYPITFGQGTRLEIKR
notes: Variant of P20

— patent US20250230251A1 (Bristol-Myers Squibb, published 2025)
